Test results taken from paper PMC5778458.
Like-named read-outs stand apart in the source and are kept apart here.

T1: Cbf5p;Nop10p;Gar1p;Nhp2p (Saccharomyces cerevisiae;Saccharomyces …, UniProt P33322;Q6Q547;P28007;P32495 1-483;1-58;1-205;1-156, |||)
T1 sequence 1: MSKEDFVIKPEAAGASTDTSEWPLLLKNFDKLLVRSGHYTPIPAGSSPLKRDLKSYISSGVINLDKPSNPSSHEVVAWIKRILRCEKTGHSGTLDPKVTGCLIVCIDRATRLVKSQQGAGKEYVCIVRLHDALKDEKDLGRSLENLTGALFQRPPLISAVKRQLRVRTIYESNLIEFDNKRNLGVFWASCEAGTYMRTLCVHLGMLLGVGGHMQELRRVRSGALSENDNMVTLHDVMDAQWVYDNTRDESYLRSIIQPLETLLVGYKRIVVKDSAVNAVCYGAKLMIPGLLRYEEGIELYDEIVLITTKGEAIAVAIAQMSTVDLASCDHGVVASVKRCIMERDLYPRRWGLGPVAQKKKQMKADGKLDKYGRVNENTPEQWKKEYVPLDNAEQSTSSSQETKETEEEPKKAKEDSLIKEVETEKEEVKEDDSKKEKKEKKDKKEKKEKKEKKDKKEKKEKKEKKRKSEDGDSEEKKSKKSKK
T1 sequence 2: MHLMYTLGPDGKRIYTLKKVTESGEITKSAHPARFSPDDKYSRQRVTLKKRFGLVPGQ
T1 sequence 3: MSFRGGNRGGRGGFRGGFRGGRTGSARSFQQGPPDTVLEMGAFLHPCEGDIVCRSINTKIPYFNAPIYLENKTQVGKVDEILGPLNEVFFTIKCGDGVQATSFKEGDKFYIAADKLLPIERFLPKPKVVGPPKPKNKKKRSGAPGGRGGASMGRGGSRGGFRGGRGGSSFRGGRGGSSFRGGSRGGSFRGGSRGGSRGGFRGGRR
T1 sequence 4: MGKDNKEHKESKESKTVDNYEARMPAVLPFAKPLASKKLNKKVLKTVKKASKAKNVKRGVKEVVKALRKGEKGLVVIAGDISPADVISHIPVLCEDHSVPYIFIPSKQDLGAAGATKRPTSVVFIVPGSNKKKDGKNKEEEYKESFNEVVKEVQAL

T2: Cbf5p;Nop10p;Gar1p (Saccharomyces cerevisiae;Saccharomyces …, UniProt P33322;Q6Q547;P28007 1-483;1-58;1-205, ||)
T2 sequence 1: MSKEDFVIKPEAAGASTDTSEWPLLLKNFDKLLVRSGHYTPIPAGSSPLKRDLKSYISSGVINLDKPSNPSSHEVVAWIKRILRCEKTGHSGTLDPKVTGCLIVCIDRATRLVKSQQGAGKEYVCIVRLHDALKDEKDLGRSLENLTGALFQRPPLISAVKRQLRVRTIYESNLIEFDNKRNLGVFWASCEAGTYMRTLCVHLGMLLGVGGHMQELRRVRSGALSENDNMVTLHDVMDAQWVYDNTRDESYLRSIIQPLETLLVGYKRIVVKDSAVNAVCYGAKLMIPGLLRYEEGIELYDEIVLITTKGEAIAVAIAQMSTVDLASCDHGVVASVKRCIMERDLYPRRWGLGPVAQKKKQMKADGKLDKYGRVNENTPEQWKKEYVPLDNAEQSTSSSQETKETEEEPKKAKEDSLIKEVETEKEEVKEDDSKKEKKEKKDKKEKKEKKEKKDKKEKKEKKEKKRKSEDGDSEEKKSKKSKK
T2 sequence 2: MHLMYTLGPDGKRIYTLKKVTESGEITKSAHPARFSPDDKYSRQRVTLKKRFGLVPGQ
T2 sequence 3: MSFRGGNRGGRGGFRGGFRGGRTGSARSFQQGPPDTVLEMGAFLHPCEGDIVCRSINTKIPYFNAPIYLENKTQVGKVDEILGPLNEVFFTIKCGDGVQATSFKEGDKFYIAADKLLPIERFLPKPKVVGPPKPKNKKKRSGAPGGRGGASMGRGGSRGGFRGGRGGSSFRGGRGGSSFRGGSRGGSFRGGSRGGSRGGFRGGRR


Key:
Experiment in all cases: filter binding
Cbf5p;Nop10p;Gar1p;Nhp2p [1] = target: T1, Cbf5p;Nop10p;Gar1p;Nhp2p
Cbf5p;Nop10p;Gar1p = target: T2, Cbf5p;Nop10p;Gar1p
Cbf5p;Nop10p;Gar1p;Nhp2p [2] = target: T1, Cbf5p;Nop10p;Gar1p;Nhp2p; remark: listed apart in the source
Cbf5p;Nop10p;Gar1p;Nhp2p [3] = target: T1, Cbf5p;Nop10p;Gar1p;Nhp2p; remark: listed apart in the source

Binder | Kd (Cbf5p;Nop10p;Gar1p;Nhp2p [1]) | Kd (Cbf5p;Nop10p;Gar1p) | further results
GGGACGUCGGCUCUUCCUAUCAUACC (mixed) [snR34 delta Box H guide + 3' substrate RNA] | 90 ± 30 nM |  | 
GGGGACAACUGGCUUGUGGCAGCCA (mixed) [snR34 guide + 5' substrate RNA] |  | 50 ± 20 nM | Kd (Cbf5p;Nop10p;Gar1p;Nhp2p [2]): 53 ± 22 nM
GGGACGUCGGCUCUUCCUAUCAUACC (mixed) [snR34 guide + 3' substrate RNA] |  | 90 ± 20 nM | 
snR34 5' HP extended stem (structured_RNA) RNA: GGGAAUCAAAAAUUUAUUUUUUACACGGAAACGAUGCCACAGUUGACUGAACCUGUCUUCUAACAGUAGUUAAUUGCCAGUAUUUCCGUGUAAACAAGA |  |  | Kd (Cbf5p;Nop10p;Gar1p;Nhp2p [3]): 1.3 ± 0.5 nM
GGGACGUCGGCUCUUCCUAUCAUACC (mixed) [snR34 delta Box ACA guide + 3' substrate RNA] | 150 ± 30 nM |  | 
